The results in this text go back to paper PMC5733569, “Sbp1 modulates the translation of Pab1 mRNA in a poly(A)- and RGG-dependent manner” (RNA, 2018).

Data set [1] relates to Pab1 (Saccharomyces cerevisiae). Kind of data set: EMSA. The settings on record: EMSA: native 8% PAGE in THEM buffer (34 mM Tris base, 57 mM Hepes, 0.1 mM EDTA, 2.5 mM MgCl2); binding buffer salt, pH and temperature not given in the ….
The test system of data set [2] is Sbp1 (Saccharomyces cerevisiae). Kind of data set: EMSA. As to conditions: Hill coefficient 2.1 +/- 0.1; EMSA: native 8% PAGE in THEM buffer (34 mM Tris base, 57 mM Hepes, 0.1 mM EDTA, 2.5 mM MgCl2); binding buffer salt, pH and temperature not given in the …. Background: A gel shift assay detects complexes by their altered migration in electrophoresis.
Data set [3] concerns Sbp1RGG (Saccharomyces cerevisiae). Kind of data set: EMSA. The settings on record: EMSA: native 8% PAGE in THEM buffer (34 mM Tris base, 57 mM Hepes, 0.1 mM EDTA, 2.5 mM MgCl2); binding buffer salt, pH and temperature not given in the ….
Data set [4] deals with Sbp1RRM1 (Saccharomyces cerevisiae). The experiment in a line: EMSA. The settings on record: EMSA: native 8% PAGE in THEM buffer (34 mM Tris base, 57 mM Hepes, 0.1 mM EDTA, 2.5 mM MgCl2); binding buffer salt, pH and temperature not given in the ….
Data set [5] deals with Sbp1RRM2 (Saccharomyces cerevisiae). The experiment in a line: EMSA. As to conditions: EMSA: native 8% PAGE in THEM buffer (34 mM Tris base, 57 mM Hepes, 0.1 mM EDTA, 2.5 mM MgCl2); binding buffer salt, pH and temperature not given in the ….
Data set [6] concerns the target Pab1 (purified, as added in the IgG-pulldown and EMSA) (S. cerevisiae) (UniProt P04147).
In data set [7] the target is T1, C-terminal TAP-tagged eIF4G1 (S. cerevisiae, UniProt P39935 1-952).
T1 construct: eIF4G1, translation initiation factor of S. cerevisiae; the TAP tag was inserted at the end of the eIF4G1 gene in its chromosome locus; also called eIF4G1-TAP; source: RNase A and 1 M KCl wash to remove endogenous RNAs
T1 sequence (looked up): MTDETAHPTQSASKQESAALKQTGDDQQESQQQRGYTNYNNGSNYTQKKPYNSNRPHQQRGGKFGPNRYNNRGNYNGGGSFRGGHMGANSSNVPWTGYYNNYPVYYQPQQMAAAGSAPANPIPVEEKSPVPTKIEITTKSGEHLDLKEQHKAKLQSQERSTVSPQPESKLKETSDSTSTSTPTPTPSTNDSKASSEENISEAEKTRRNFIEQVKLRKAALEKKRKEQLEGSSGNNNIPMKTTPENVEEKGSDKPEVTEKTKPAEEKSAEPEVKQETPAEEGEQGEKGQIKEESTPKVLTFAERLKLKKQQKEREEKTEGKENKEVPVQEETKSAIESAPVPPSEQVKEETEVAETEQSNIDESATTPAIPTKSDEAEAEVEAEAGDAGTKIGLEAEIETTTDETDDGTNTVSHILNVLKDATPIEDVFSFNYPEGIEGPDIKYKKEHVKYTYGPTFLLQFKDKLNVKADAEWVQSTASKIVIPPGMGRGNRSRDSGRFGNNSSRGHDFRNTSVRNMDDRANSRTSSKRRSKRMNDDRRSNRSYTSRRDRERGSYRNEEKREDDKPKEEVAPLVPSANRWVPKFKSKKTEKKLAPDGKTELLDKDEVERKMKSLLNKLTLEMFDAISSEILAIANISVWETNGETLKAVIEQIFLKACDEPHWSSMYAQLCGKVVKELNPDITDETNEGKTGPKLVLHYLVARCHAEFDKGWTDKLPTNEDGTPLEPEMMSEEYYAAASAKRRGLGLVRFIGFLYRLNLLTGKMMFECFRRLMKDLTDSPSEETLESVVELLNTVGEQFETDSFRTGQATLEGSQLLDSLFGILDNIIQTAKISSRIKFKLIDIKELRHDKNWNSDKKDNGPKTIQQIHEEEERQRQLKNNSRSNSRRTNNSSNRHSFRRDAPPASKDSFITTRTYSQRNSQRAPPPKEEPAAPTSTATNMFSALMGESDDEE
Kind of data set: pull-down; IgG-pulldown: eIF4G1-TAP with purified Pab1 and Sbp1 (or Sbp1^m) in the presence of 10x 5′UTR_Pab1 RNA. The settings on record: both partners purified.

In general, Kd refers to the constant that tells how readily two partners part at equilibrium. For the molecule 5'UTRPab1, the Kd in data set [1] is 31.2 nM; in data set [2], 26.5 nM; in data set [3] it was 2700 nM; in data set [4], 1100 nM; in data set [5] it was 900 nM.

B1: Sbp1 (natural protein)
chain: MSAEIEEATNAVNNLSINDSEQQPRAPTHKTVIDPEDTIFIGNVAHECTEDDLKQLFVEEFGDEVSVEIPIKEHTDGHIPASKHALVKFPTKIDFDNIKENYDTKVVKDREIHIKRARTPGQMQRGGFRGRGGFRGRGGFRGGFRGGYRGGFRGRGNFRGRGGARGGFNGQKREKIPLDQMERSKDTLYINNVPFKATKEEVAEFFGTDADSISLPMRKMRDQHTGRIFTSDSANRGMAFVTFSGENVDIEAKAEEFKGKVFGDRELTVDVAVIRPENDEEEIEQETGSEEKQE
As to B1, in data set [6], the cap-dependent translation initiation activity of the 5′UTR Pab1 luciferase reporter in yeast cell extract with an increasing amount of Sbp1 lay within 20 to 60 % decrease.

B2: Pab1 (purified, as added in the IgG-pulldown and EMSA) (natural protein, S. cerevisiae, UniProt P04147 1-577, looked up)
chain: MADITDKTAEQLENLNIQDDQKQAATGSESQSVENSSASLYVGDLEPSVSEAHLYDIFSPIGSVSSIRVCRDAITKTSLGYAYVNFNDHEAGRKAIEQLNYTPIKGRLCRIMWSQRDPSLRKKGSGNIFIKNLHPDIDNKALYDTFSVFGDILSSKIATDENGKSKGFGFVHFEEEGAAKEAIDALNGMLLNGQEIYVAPHLSRKERDSQLEETKAHYTNLYVKNINSETTDEQFQELFAKFGPIVSASLEKDADGKLKGFGFVNYEKHEDAVKAVEALNDSELNGEKLYVGRAQKKNERMHVLKKQYEAYRLEKMAKYQGVNLFVKNLDDSVDDEKLEEEFAPYGTITSAKVMRTENGKSKGFGFVCFSTPEEATKAITEKNQQIVAGKPLYVAIAQRKDVRRSQLAQQIQARNQMRYQQATAAAAAAAAGMPGQFMPPMFYGVMPPRGVPFNGPNPQQMNPMGGMPKNGMPPQFRNGPVYGVPPQGGFPRNANDNNQFYQQKQRQALGEQLYKKVSAKTSNEEAAGKITGMILDLPPQEVFPLLESDELFEQHYKEASAAYESFKKEQEQQTEQA
notes: it may be the same molecule as m1
Turning to B2, the binding result in data set [7] is “binds”.
